This data set concerns the target T1, Human α2Macroglobulin, P01023.
T1 chain: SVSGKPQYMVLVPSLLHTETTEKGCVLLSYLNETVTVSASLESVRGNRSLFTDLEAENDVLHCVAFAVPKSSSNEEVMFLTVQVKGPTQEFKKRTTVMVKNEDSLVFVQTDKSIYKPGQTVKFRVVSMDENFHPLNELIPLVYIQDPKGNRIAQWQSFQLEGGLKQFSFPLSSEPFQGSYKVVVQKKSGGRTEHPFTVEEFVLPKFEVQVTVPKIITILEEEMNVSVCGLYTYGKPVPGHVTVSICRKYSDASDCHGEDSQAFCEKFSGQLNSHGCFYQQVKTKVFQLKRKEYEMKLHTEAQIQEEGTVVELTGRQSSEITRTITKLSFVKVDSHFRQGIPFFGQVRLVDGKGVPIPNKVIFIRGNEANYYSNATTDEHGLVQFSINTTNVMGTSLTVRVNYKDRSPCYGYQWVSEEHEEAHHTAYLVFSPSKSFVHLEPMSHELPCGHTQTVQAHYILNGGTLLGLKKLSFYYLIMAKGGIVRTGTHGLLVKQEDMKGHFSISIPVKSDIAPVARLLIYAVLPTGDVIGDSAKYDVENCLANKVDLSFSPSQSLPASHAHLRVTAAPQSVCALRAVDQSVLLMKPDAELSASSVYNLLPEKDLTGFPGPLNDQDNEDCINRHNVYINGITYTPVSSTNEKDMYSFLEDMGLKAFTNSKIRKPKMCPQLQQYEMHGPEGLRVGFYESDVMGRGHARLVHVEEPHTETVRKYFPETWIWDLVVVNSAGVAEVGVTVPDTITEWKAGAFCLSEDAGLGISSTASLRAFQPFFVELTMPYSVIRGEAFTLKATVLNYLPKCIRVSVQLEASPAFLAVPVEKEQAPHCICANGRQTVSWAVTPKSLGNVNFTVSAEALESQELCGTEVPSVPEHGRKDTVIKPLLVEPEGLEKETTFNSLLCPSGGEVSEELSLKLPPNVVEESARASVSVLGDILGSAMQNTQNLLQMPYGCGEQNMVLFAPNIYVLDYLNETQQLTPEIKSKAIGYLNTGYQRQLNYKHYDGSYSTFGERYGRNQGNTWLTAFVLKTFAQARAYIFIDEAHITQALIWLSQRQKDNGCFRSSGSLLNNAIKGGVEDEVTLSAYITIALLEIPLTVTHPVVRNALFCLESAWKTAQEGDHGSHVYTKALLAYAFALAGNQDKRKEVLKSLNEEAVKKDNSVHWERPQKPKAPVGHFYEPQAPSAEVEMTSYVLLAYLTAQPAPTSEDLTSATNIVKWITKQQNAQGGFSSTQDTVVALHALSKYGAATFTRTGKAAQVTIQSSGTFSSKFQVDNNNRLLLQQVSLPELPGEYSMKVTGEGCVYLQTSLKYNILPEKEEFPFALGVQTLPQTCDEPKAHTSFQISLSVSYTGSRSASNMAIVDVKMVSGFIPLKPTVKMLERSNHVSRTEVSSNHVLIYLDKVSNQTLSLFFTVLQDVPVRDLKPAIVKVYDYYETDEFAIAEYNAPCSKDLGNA

B1: HipHum 35 construct no.2 (recombinant HH35 protein, catalytic domain only, with a six histidine tag at the amino terminal) (protein)
chain: HHHHHHRRSPRAPLSLSRRGWQPRGYPDGGAAQAFSKRTLSWRLLGEALSSQLSVADQRRIVALAFRMWSEVTPLDFREDLAAPGAAVDIKLGFGRGRHLGCPRAFDGSGQEFAHAWRLGDIHFDDDEHFTPPTSDTGISLLKVAVHEIGHVLGLPHTYRTGSIMQPNYIPQEPAFELDWSDRKAIQKLY
On to B1, for which the “α2Macroglobulin trapping (protein gel), evidence for protease activity” value is recorded as “αmacroglobulin capture by Hiphum 35, demonstrating that Hiphum 35 has protease activity”.

The values above are taken from patent US20020076800.
